# Measurements published in paper PMC11924222, “Integrated Study of Fluorescence Enhancement in the Y176H Variant of Cyanobacterial Phytochrome Cph1” (Biochemistry, 2025).
# B1: Cph1 Y176H variant of the Cph1 photosensory module (residues 1-514; NTS, nPAS, GAF and PHY domains), crystallization construct with N141R (domain or fragment, Synechocystis 6803, UniProt Q55168 1-514, looked up)
# chain: MATTVQLSDQSLRQLETLAIHTAHLIQPHGLVVVLQEPDLTISQISANCTGILGRSPEDLLGRTLGEVFDSFQIDPIQSRLTAGQISSLNPSKLWARVMGDDFVIFDGVFHRNSDGLLVCELEPAYTSDNLPFLGFYHMARAALNRLRQQANLRDFYDVIVEEVRRMTGFDRVMLHRFDENNHGDVIAEDKRDDMEPYLGLHYPESDIPQPARRLFIHNPIRVIPDVYGVAVPLTPAVNPSTNRAVDLTESILRSAYHCHLTYLKNMGVGASLTISLIKDGHLWGLIACHHQTPKVIPFELRKACEFFGRVVFSNISAQEDTETFDYRVQLAEHEAVLLDKMTTAADFVEGLTNHPDRLLGLTGSQGAAICFGEKLILVGETPDEKAVQYLLQWLENREVQDVFFTSSLSQIYPDAVNFKSVASGLLAIPIARHNFLLWFRPEVLQTVNWGGDPNHAYEATQEDGKIELHPRQSFDLWKEIVRLQSLPWQSVEIQSALALKKAIVNLILRQAEE
# modifications: phycocyanobilin (PCB) chromophore covalently attached to Cys259
# notes: Cyanobacterial phytochrome Cph1 from Synechocystis 6803, photosensor residues 1-514 (NTS, nPAS, GAF and PHY domains), with Y176H and, for crystallization, N141R; PDB 2VEA is the wild-type parent; not shown: His6, N-terminal, cleaved
# Key:
# [1] = molecular target: His260 (UniProt position 260, SAYHCHLTYLK); test: not stated for the pKa value; the article cites resonance Raman, MAS NMR and absorption studies; conditions: Pr (dark-adapted) state, PCB-bound holoprotein; cited from earlier work
# [2] = molecular target: the molecule itself; test: crystal structure; X-ray, 3.7 Å; crystals grown in 0.3 M ammonium formate, 0.1 M HEPES pH 6.9, 18% Sokalan CP7; four protomers in the asymmetric unit
Molecule,pKa [1],binding result [2]
"Phytochrome-like protein Cph1 (cyanobacterial phytochrome 1), photosensory module, wild type (Synechocystis sp. PCC 6803)",7.5,
B1,,binds
